# Data as given in patent publication US20250320281A1.
# Legend:
# Assay in all cases: cell-based or functional assay
# [1] = molecular target: HIV-1 Env of isolate QH0692.42 (subtype B) (HIV-1)
# [2] = molecular target: HIV-1 Env of isolate 92UG024 (HIV-1)
# [3] = molecular target: HIV-1 Env of isolate THR0.18 (subtype B) (HIV-1)
# [4] = molecular target: HIV-1 Env of isolate MGRM-AE-006 (subtype AE) (HIV-1)
# [5] = molecular target: HIV-1 envelope glycoprotein (Env) of isolate MGRM-C-009 (HIV-1)
# [6] = molecular target: HIV-1 Env of isolate 92WR009 (HIV-1)
# [7] = molecular target: HIV-1 Env of isolate MGRM-A-009 (subtype A) (HIV-1)
# [8] = molecular target: HIV-1 Env of isolate 93TH305 (HIV-1)
# [9] = molecular target: HIV-1 Env of isolate APV-6 (HIV-1)
# [10] = molecular target: HIV-1 Env of isolate MGRM-Chronic-B-018 (subtype B) (HIV-1)
# [11] = molecular target: HIV-1 Env of isolate MGRM-Chronic-B-010 (subtype B) (HIV-1)
# [12] = molecular target: HIV-1 Env of isolate MGRM-A-012 (subtype A) (HIV-1)
# [13] = molecular target: HIV-1 Env of pseudovirus isolate MGRM-G-025 (HIV-1)
# [14] = molecular target: HIV-1 Env of isolate MG RM-D-014 (HIV-1)
# [15] = molecular target: HIV-1 MGRM-C-028 Env (pseudovirus, clade C) (HIV-1)
# [16] = molecular target: HIV-1 APV13 Env (pseudovirus, clade B) (HIV-1)
# [17] = molecular target: HIV-1 Env of isolate MGRM-D-008 (pseudovirus) (HIV-1)
# [18] = molecular target: HIV-1 Env of isolate MGRM-F1-017 (HIV-1)
# [19] = molecular target: HIV-1 Env of isolate MGRM-F1-015 (HIV-1)
# [20] = molecular target: HIV-1 Env of isolate MGRM-D-011 (pseudovirus) (HIV-1)
# [21] = molecular target: HIV-1 Env of isolate MGRM-D-012 (pseudovirus) (HIV-1)
# [22] = molecular target: HIV-1 Env of isolate MGRM-AE-006 (HIV-1)
# [23] = molecular target: HIV-1 Env of isolate 92TH021 (clade AE), on pseudovirus (HIV-1)
# [24] = molecular target: aMLV envelope, on pseudovirus (negative control virus)
# [25] = molecular target: HIV-1 Env of isolate MGRM-F1-023 (HIV-1)
# [26] = molecular target: HIV-1 Env of isolate MGRM-D-013 (pseudovirus) (HIV-1)
# [27] = molecular target: HIV-1 Env of isolate MGRM-AG-005 (clade AG), on pseudovirus (HIV-1)
# [28] = molecular target: HIV-1 NL43 envelope glycoprotein (Env) on pseudovirus (HIV-1)
# [29] = molecular target: HIV-1 Env of isolate MGRM-G-015 (HIV-1)
# [30] = molecular target: HIV-1 Env of isolate MGRM-G-024 (HIV-1)
# [31] = molecular target: HIV-1 Env of isolate MGRM-G-025 (HIV-1)
# 5345_I01 (PGT-137) (antibody), sequence (VH): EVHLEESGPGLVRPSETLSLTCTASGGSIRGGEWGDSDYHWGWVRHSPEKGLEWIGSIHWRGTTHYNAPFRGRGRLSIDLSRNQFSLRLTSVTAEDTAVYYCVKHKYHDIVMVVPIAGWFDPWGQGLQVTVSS
# 5345_I01 (PGT-137) (antibody), sequence (VL): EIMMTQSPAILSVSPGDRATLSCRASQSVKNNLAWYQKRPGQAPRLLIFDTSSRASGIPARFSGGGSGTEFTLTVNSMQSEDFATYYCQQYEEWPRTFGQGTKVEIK
Substance,IC50 neutralization [1] [µg/mL],"IC50 (µg/mL), pseudovirus neutralization [2] [µg/mL]",IC50 neutralization [3] [µg/mL],"IC50 (µg/mL), pseudovirus neutralization [4] [µg/mL]","IC50 (µg/mL), pseudovirus neutralization [5] [µg/mL]",IC50 [6] [µg/mL],"IC50 (µg/mL), pseudovirus neutralization [7] [µg/mL]",neutralization IC50 [8] [µg/mL],neutralization IC50 [9] [µg/mL],IC50 neutralization [10] [µg/mL],IC50 neutralization [11] [µg/mL],"IC50 (µg/mL), pseudovirus neutralization [12] [µg/mL]","IC50 (µg/mL), pseudovirus neutralization [13] [µg/mL]","IC50 (µg/mL), pseudovirus neutralization [14] [µg/mL]","IC50, pseudovirus neutralization [17] [µg/mL]","IC50 (µg/mL), pseudovirus neutralization [18] [µg/mL]","IC50 (µg/mL), pseudovirus neutralization [19] [µg/mL]","IC50, pseudovirus neutralization [20] [µg/mL]","IC50, pseudovirus neutralization [21] [µg/mL]",IC50 [22] [µg/mL],also measured
5114_A19 (PGT-128) (antibody),0.029,> 50,> 50,0.044,> 50,0.812,0.005,0.006,0.007,0.02,0.004,0.025,0.017,0.013,,,,,,,
5123_A06 (PGT-125) (antibody),,,,,,,,,,,,,> 50,,> 50,> 50,> 50,0.008,> 50,0.009,"IC50 neutralization [15]: 5.78 µg/mL; IC50 neutralization [16]: 0.0128 µg/mL; IC50, pseudovirus neutralization [23]: 0.0066 µg/mL; IC50, pseudovirus neutralization [24]: > 10 µg/mL; IC50 (µg/mL), pseudovirus neutralization [25]: 0.12 µg/mL; IC50, pseudovirus neutralization [26]: > 50 µg/mL; IC50, pseudovirus neutralization [27]: > 10 µg/mL"
5136_H01 (PGT-131) (antibody),> 50,> 50,> 50,0.026,> 50,3.12,0.035,0.016,> 50,> 50,0.016,> 50,7.75,0.516,,,,,,,
5141_B17 (PGT-126) (antibody),,,,,,,,,,,,,17.1,,43.1,> 50,> 50,0.009,> 50,17.3,"IC50 neutralization [15]: 0.283 µg/mL; IC50 neutralization [16]: 0.012 µg/mL; IC50, pseudovirus neutralization [28]: > 10 µg/mL; IC80 (pseudovirus neutralization) [28]: > 10 µg/mL; IC90 (pseudovirus neutralization) [28]: > 10 µg/mL; IC95 (pseudovirus neutralization) [28]: > 10 µg/mL; IC50, pseudovirus neutralization [23]: 0.115 µg/mL; IC50, pseudovirus neutralization [24]: > 10 µg/mL; IC50 (µg/mL), pseudovirus neutralization [25]: 0.009 µg/mL; IC50, pseudovirus neutralization [26]: > 50 µg/mL; IC50, pseudovirus neutralization [27]: 1.35 µg/mL"
5145_B14 (PGT-127) (antibody),,,,,,,,,,,,,19.3,,> 50,> 50,> 50,0.015,> 50,> 50,"IC50 (µg/mL), pseudovirus neutralization [25]: 0.119 µg/mL; IC50, pseudovirus neutralization [26]: > 50 µg/mL"
5345_I01 (PGT-137) (antibody),> 50,0.106,> 50,> 50,> 50,> 50,> 50,> 50,> 50,> 50,> 50,> 50,> 50,> 50,,,,,,,
PGV04 (antibody),,,,,,,,,,,,,,,,,,,,,"IC50 (µg/mL), pseudovirus neutralization [29]: 0.333 µg/mL; IC50 (µg/mL), pseudovirus neutralization [8]: 0.255 µg/mL; IC50 (µg/mL), pseudovirus neutralization [30]: 0.033 µg/mL; IC50 (µg/mL), pseudovirus neutralization [31]: 1.61 µg/mL"
VRC01 (antibody),,,,4.65,,,,,,,,,,,,,,,,,"IC50 [18]: 1.08 µg/mL; IC50 [19]: 0.387 µg/mL; IC50 (µg/mL), pseudovirus neutralization [29]: 0.548 µg/mL; IC50 (µg/mL), pseudovirus neutralization [30]: 0.025 µg/mL; IC50 [25]: 0.392 µg/mL; IC50 (µg/mL), pseudovirus neutralization [31]: 0.292 µg/mL; IC50 [14]: 0.332 µg/mL"
